In patent publication US20240287138A1 (Merck Sharp & Dohme, published 2024):
Bridge positions count the residues as written; N and C are the ends. Square brackets hold non-standard residues; d marks the D form. Trp(βS-Me,7-OMe) = COc1cccc2c([C@H](C)[C@H](N)C(=O)O)c[nH]c12; Phe(2-F,4-COOH) = N[C@@H](Cc1ccc(C(=O)O)cc1F)C(=O)O; Trp(7-Cl) = N[C@@H](Cc1c[nH]c2c(Cl)cccc12)C(=O)O; Phe(3-COOH) = N[C@@H](Cc1cccc(C(=O)O)c1)C(=O)O; Phe(4-CONH2) = NC(=O)c1ccc(C[C@H](N)C(=O)O)cc1; Phe(4-COOH) = N[C@@H](Cc1ccc(C(=O)O)cc1)C(=O)O; Trp(7-aza) = N[C@@H](Cc1c[nH]c2ncccc12)C(=O)O; Phe(4-CH2NH2) = NCc1ccc(C[C@H](N)C(=O)O)cc1; dPro(trans-4-F) = O=C(O)[C@H]1C[C@H](F)CN1; αMeW = C[C@](N)(Cc1c[nH]c2ccccc12)C(=O)O; Pip(4-aza) = O=C(O)[C@@H]1CNCCN1; 4Pal = N[C@@H](Cc1ccncc1)C(=O)O; NMeE = CN[C@@H](CCC(=O)O)C(=O)O; 2SBrPr = not defined here; NMeS = CN[C@@H](CO)C(=O)O; αMeS = C[C@](N)(CO)C(=O)O; Nle = CCCC[C@H](N)C(=O)O; Pip2c = not defined here; SBrPh = not defined here; Dab = NCC[C@H](N)C(=O)O; Sar = CNCC(=O)O

B1: SEQ ID NO. 107 (peptide)
peptide: cyclo([bhcLeu][Nle][4Pal][Pip2c]W[NMeE]N[4Pal][Trp(7-Cl)][αMeS][Phe(4-COOH)][Phe(2-F,4-COOH)][Sar][Trp(βS-Me,7-OMe)])
modifications: reading uncertain; also: printed as cyclo(bhcLeu-Nle-4Pal-Pip2c-W-NMeE-N-4Pal-Trp7Cl-aMeS-Phe4COOH-Phe2F4COOH-Sar-SbMeW7OMe)
B2: SEQ ID NO. 108 (peptide)
peptide: cyclo([bhcLeu][Nle][4Pal][Pip2c]W[NMeE]N[Phe(2-F,4-COOH)][Trp(7-Cl)][αMeS][Phe(4-COOH)]Y[Sar][Trp(βS-Me,7-OMe)])
modifications: reading uncertain; also: printed as cyclo(bhcLeu-Nle-4Pal-Pip2c-W-NMeE-N-Phe2F4COOH-Trp7Cl-aMeS-Phe4COOH-Y-Sar-SbMeW7OMe)
B3: SEQ ID NO. 111 (peptide)
peptide: cyclo([bhcLeu][Nle][4Pal][Pip2c]W[NMeE]N[4Pal][Trp(7-Cl)][αMeS][F4MCO2H]Y[Sar][Trp(βS-Me,7-OMe)])
modifications: reading uncertain; also: printed as cyclo(bhcLeu-Nle-4Pal-Pip2c-W-NMeE-N-4Pal-Trp7Cl-aMeS-F4MCO2H-Y-Sar-SbMeW7OMe)
B4: SEQ ID NO. 117 (peptide)
peptide: cyclo([bhcLeu][Nle][4Pal][Pip2c]W[NMeE]N[Phe4COOMe][Trp(7-Cl)][αMeS][Phe(4-COOH)]Y[Sar][Trp(βS-Me,7-OMe)])
modifications: reading uncertain; also: printed as cyclo(bhcLeu-Nle-4Pal-Pip2c-W-NMeE-N-Phe4COOMe-Trp7Cl-aMeS-Phe4COOH-Y-Sar-SbMeW7OMe)
B5: SEQ ID NO. 249 (peptide)
peptide: {CH2CO}-[Nle][4Pal][Pip(4-aza)]W[NMeE]N[4Pal][Trp(7-Cl)][αMeS][Phe(3-COOH)]Y[Sar][Trp(βS-Me,7-OMe)]C-NH2
modifications: thioether N-14
SMILES: CCCC[C@@H]1NC(=O)CSC[C@@H](C(N)=O)NC(=O)[C@H]([C@@H](C)c2c[nH]c3c(OC)cccc23)NC(=O)CN(C)C(=O)[C@H](Cc2ccc(O)cc2)NC(=O)[C@H](Cc2cccc(C(=O)O)c2)NC(=O)[C@](C)(CO)NC(=O)[C@H](Cc2c[nH]c3c(Cl)cccc23)NC(=O)[C@H](Cc2ccncc2)NC(=O)[C@H](CC(N)=O)NC(=O)[C@H](CCC(=O)O)N(C)C(=O)[C@H](Cc2c[nH]c3ccccc23)NC(=O)[C@@H]2CNCCN2C(=O)[C@H](Cc2ccncc2)NC1=O
B6: SEQ ID NO. 250 (peptide)
peptide: 2SBrPr-[Nle][Phe(4-CH2NH2)]S[Trp(7-aza)][NMeE]N[4Pal][Trp(7-Cl)][αMeS][Phe(4-CONH2)]Y[Sar][Trp(βS-Me,7-OMe)]C-NH2
modifications: thioether N-14; reading uncertain; also: printed as cyclo(2SBrPr-Nle-Phe4CH2NH2-S-Trp7az-NMeE-N-4Pal-Trp7Cl-aMeS-Phe4CONH2-Y-Sar-SbMeW7OMe-C)-NH2
B7: SEQ ID NO. 255 (peptide)
peptide: {CH2CO}-[Nle][4Pal][Pip(4-aza)][Trp(7-aza)][NMeE]N[4Pal][Trp(7-Cl)][αMeS][Phe(4-COOH)]Y[Sar][Trp(βS-Me,7-OMe)]CGEE-NH2
modifications: thioether N-14
SMILES: CCCC[C@@H]1NC(=O)CSC[C@@H](C(=O)NCC(=O)N[C@@H](CCC(=O)O)C(=O)N[C@@H](CCC(=O)O)C(N)=O)NC(=O)[C@H]([C@@H](C)c2c[nH]c3c(OC)cccc23)NC(=O)CN(C)C(=O)[C@H](Cc2ccc(O)cc2)NC(=O)[C@H](Cc2ccc(C(=O)O)cc2)NC(=O)[C@](C)(CO)NC(=O)[C@H](Cc2c[nH]c3c(Cl)cccc23)NC(=O)[C@H](Cc2ccncc2)NC(=O)[C@H](CC(N)=O)NC(=O)[C@H](CCC(=O)O)N(C)C(=O)[C@H](Cc2c[nH]c3ncccc23)NC(=O)[C@@H]2CNCCN2C(=O)[C@H](Cc2ccncc2)NC1=O
B8: SEQ ID NO. 264 (peptide)
peptide: {CH2CO}-[Nle]H[Pip2c][Trp(7-aza)][NMeE]N[4Pal][Trp(7-Cl)][αMeS][Phe(4-COOH)]Y[Sar][Trp(βS-Me,7-OMe)]C-NH2
modifications: thioether N-14; reading uncertain; also: printed as cyclo(ClAc-Nle-H-Pip2c-Trp7az-NMeE-N-4Pal-Trp7Cl-aMeS-Phe4COOH-Y-Sar-SbMeW7OMe-C)-NH2
B9: SEQ ID NO. 273 (peptide)
peptide: XXXXENXXXXYGXC
modifications: not fully specified; cyclo(2SBrPr-Nle-4Pal-Bav-Trp7az-NMeE-N-4Pal-Trp7Cl-aMeS-Phe4CONH2-Y-Sar-SbMeW7OMe-C)-NH2
B10: SEQ ID NO. 274 (peptide)
peptide: SBrPh-[Nle][4Pal]S[Trp(7-aza)][NMeE]N[4Pal][Trp(7-Cl)][αMeS][Phe(4-COOH)]Y[Sar][αMeW]C-NH2
modifications: thioether N-14; reading uncertain; also: printed as cyclo(SBrPh-Nle-4Pal-S-Trp7az-NMeE-N-4Pal-Trp7Cl-aMeS-Phe4COOH-Y-Sar-aMeW-C)-NH2
B11: SEQ ID NO. 277 (peptide)
peptide: {CH2CO}-[Nle][4Pal][Dab][Trp(7-aza)][NMeE]N[4Pal][Trp(7-Cl)][αMeS][Phe(4-COOH)]Y[Sar][αMeW]C-NH2
modifications: thioether N-14
SMILES: CCCC[C@@H]1NC(=O)CSC[C@@H](C(N)=O)NC(=O)[C@](C)(Cc2c[nH]c3ccccc23)NC(=O)CN(C)C(=O)[C@H](Cc2ccc(O)cc2)NC(=O)[C@H](Cc2ccc(C(=O)O)cc2)NC(=O)[C@](C)(CO)NC(=O)[C@H](Cc2c[nH]c3c(Cl)cccc23)NC(=O)[C@H](Cc2ccncc2)NC(=O)[C@H](CC(N)=O)NC(=O)[C@H](CCC(=O)O)N(C)C(=O)[C@H](Cc2c[nH]c3ncccc23)NC(=O)[C@H](CCN)NC(=O)[C@H](Cc2ccncc2)NC1=O
B12: SEQ ID NO. 279 (peptide)
peptide: {CH2CO}-[Nle][4Pal][Pip(4-aza)]W[dPro(trans-4-F)]N[4Pal][Trp(7-Cl)][αMeS][Phe(4-COOH)]Y[Sar][Trp(βS-Me,7-OMe)]C-NH2
modifications: thioether N-14
SMILES: CCCC[C@@H]1NC(=O)CSC[C@@H](C(N)=O)NC(=O)[C@H]([C@@H](C)c2c[nH]c3c(OC)cccc23)NC(=O)CN(C)C(=O)[C@H](Cc2ccc(O)cc2)NC(=O)[C@H](Cc2ccc(C(=O)O)cc2)NC(=O)[C@](C)(CO)NC(=O)[C@H](Cc2c[nH]c3c(Cl)cccc23)NC(=O)[C@H](Cc2ccncc2)NC(=O)[C@H](CC(N)=O)NC(=O)[C@H]2C[C@H](F)CN2C(=O)[C@H](Cc2c[nH]c3ccccc23)NC(=O)[C@@H]2CNCCN2C(=O)[C@H](Cc2ccncc2)NC1=O

Tests used:
[1] = biological target: T1, TNFR1 on THP-1 Lucia NF-kB reporter cells (UniProt P19438 30-455, limits assumed); experiment: cell-based or functional assay
T1 sequence (looked up): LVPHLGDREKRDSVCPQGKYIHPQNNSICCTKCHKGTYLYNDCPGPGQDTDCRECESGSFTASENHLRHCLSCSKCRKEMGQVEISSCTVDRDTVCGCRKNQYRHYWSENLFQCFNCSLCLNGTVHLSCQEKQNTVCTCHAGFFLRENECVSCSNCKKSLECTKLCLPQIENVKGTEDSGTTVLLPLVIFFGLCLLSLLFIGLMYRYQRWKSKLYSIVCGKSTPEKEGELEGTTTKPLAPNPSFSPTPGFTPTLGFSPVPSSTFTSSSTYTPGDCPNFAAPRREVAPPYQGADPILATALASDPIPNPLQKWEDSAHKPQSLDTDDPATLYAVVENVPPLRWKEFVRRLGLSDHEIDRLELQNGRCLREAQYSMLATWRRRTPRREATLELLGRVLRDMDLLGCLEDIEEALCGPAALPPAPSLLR

[2] = biological target: T2, TNFR1 on THP-1 Lucia NF-κB cells (UniProt P19438 30-455, limits assumed); experiment: cell-based or functional assay
T2 sequence (looked up): T1 sequence (looked up)

| Binder | THP-1 IC50 [1] | THP-1 IC50 [2] |
| --- | --- | --- |
| B1 | 1 nM | – |
| B2 | 1.2 nM | – |
| B3 | 1.6 nM | – |
| B4 | 2.1 nM | – |
| cyclo([bhcLeu][Nle][4Pal][Pipc5CO2H]W[NMeE]N[4Pal][Trp(7-Cl)][αMeS][Phe(4-COOH)]Y[Sar][Trp(βS-Me,7-OMe)]) [SEQ ID NO. 120] | 1.4 nM | – |
| B5 | – | 4.4 nM |
| B6 | – | 2.4 nM |
| B7 | – | 6.5 nM |
| B8 | – | 8.1 nM |
| {CH2CO}-[Nle][4Pal][NMeS]W[NMeE]N[4Pal][Trp(7-Cl)][αMeS][Phe(4-COOH)][Phe3CONH2][Sar][Trp(βS-Me,7-OMe)]C-NH2 (thioether N-14) [SEQ ID NO. 270] | – | 2.2 nM |
| B9 | – | 4.1 nM |
| B10 | – | 3.2 nM |
| B11 | – | 3 nM |
| B12 | – | 1.4 nM |
